# Measurements as given in IntAct's records for PubMed 17889823.
# B1: Programmed cell death protein 6 (Mus musculus), P12815 (parent)
# chain: MAAYSYRPGPGGGPGPAAGAALPDQSFLWNVFQRVDKDRSGVISDNELQQALSNGTWTPFNPVTVRSIISMFDRENKAGVNFSEFTGVWKYITDWQNVFRTYDRDNSGMIDKNELKQALSGFGYRLSDQFHDILIRKFDRQGRGQIAFDDFIQGCIVLQRLTDIFRRYDTDQDGWIQVSYEQYLSMVFSIV
# partner: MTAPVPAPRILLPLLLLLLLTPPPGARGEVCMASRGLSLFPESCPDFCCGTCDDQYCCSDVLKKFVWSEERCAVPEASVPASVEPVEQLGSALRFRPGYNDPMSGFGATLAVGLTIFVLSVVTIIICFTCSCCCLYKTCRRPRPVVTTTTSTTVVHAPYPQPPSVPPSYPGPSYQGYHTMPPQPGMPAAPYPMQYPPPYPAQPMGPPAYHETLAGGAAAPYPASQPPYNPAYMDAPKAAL
# Variants of: B1
# Conditions: with shsa5_human SHISA5, Q8N114
row,Variant,effect of a mutation on the interaction
1,E47D;E114D,disrupting interaction strength
